In patent US20130225488A1 (CADILA HEALTHCARE, published 2013):
Where no end group is shown, it is not given here. [ ]: non-standard residue; d: D form. Ac3c = NC1(C(=O)O)CC1; Aib = CC(C)(N)C(=O)O

B1: Seq. ID. No. 16: H-Aib-QGTFTSD-Bip(OMe)-Bip(2CF3) (peptide)
peptide: H[Aib]QGTFTSD[Bip(OMe)][Bip(2CF3)]
B2: Seq. ID. No. 17: H-(ACP)-QGTFTSD-Bip(OMe)-Bip(2Me) (peptide)
peptide: H[Ac3c]QGTFTSD[Bip(OMe)][Bip(2Me)]
B3: Seq. ID. No. 18: H-(ACP)-QGTFTSD-Bip(OMe)-Bip(Pyr) (peptide)
peptide: H[Ac3c]QGTFTSD[Bip(OMe)][Bip(Pyr)]

These binders were tested against Human glucagon receptor (human, UniProt P47871 26-477) (assay: cell-based or functional assay).

Binder	cAMP production with saturated glucagon peptide; test compound 1 nM [pmol/ml/µg prt]	cAMP production with saturated glucagon peptide; test compound 10 nM [pmol/ml/µg prt]	cAMP production with saturated glucagon peptide; test compound 100 nM [pmol/ml/µg prt]	cAMP production with saturated glucagon peptide; test compound 10 µM [pmol/ml/µg prt]	cAMP production with saturated glucagon peptide; test compound '1 nM' [pmol/ml/µg prt]
B1	4	2	0	0	0
B2	2	0	0	0	0
B3	0	0	0	0	0

The binders below were run against Human GLP-1 receptor (human, UniProt P43220 24-463) (assay: cell-based or functional assay).
Chain of Human GLP-1 receptor (P43220 24-463): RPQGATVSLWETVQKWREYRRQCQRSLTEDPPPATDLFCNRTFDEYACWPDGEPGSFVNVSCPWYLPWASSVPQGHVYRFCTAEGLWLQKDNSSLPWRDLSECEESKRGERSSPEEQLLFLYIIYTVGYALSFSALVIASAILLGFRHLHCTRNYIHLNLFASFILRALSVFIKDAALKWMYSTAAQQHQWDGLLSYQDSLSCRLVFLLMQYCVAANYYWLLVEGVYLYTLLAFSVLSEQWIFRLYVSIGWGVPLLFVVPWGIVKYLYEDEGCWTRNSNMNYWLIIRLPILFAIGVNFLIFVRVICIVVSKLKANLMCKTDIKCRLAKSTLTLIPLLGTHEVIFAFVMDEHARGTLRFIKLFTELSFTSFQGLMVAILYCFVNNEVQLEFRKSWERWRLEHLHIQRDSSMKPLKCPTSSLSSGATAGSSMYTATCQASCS

Binder	cAMP release, % activity with respect to control; test compound 1 nM [%]	cAMP release, % activity with respect to control; test compound 10 nM [%]	cAMP release, % activity with respect to control; test compound 100 nM [%]	cAMP release, % activity with respect to control; test compound 1 µM [%]	cAMP release, % activity with respect to control; test compound 10 µM [%]
B1	69	98	99	99	99
B2	78	99	99	99	99
B3	86	99	99	99	99
